Read-outs that look alike come from different tables or passages of the source.

Consider three molecules from patent US20120058906A1 (published 2012).

Test [1] deals with T1, rHuman IGF-1 sR (IGF-1 sR), CF (R&D Systems Cat#391-GR) (human, UniProt P08069 31-932).
T1 construct: Purchased soluble receptor; also called insulin-like growth factor-1 soluble receptor; IGF-R1
Kind of test: MSD ECL multi-spot plate, antigen immobilized; Fab 40 nM; blank spot 518.

Test [2] concerns the target T2, rHuman P-Cadherin/Fc Chimera, CF (R&D Systems Cat#861-PC) (human, UniProt P22223 108-654).
T2 construct: Purchased Fc chimera; not shown: Fc portion of the purchased chimera
The description is as above.

In test [3] the target is T3, rHuman Erythropoietin R/Fc Chimera, CF (R&D Systems Cat#963-ER) (human, UniProt P19235 25-250).
T3 construct: Purchased Fc chimera; also called EPO R/Fc; Epo R; not shown: Fc portion of the purchased chimera
T3 sequence: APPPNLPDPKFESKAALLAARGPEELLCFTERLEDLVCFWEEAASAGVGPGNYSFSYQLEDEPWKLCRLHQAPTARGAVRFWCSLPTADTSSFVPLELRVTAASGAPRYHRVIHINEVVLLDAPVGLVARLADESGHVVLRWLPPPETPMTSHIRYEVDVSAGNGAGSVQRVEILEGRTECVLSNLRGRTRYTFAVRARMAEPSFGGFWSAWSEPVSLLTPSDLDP
The test is described as above.

Test [4] concerns the target T4, Recombinant Human DLL4 (R&D Systems Cat#1506-D4/CF) (human, UniProt Q9NR61 27-524).
T4 construct: Purchased recombinant protein; also called delta-like protein 4
The description is as above.

The target in test [5] is T5, rHuman EGF R/Fc Chimera, CF (R&D Systems Cat#344-ER) (human, UniProt P00533 25-645).
T5 construct: Purchased Fc chimera; not shown: Fc portion of the purchased chimera
The test is described as above.

Test [6] addresses T6, rHuman CD44/Fc Chimera, CF (R&D Systems Cat#3660-CD) (human, UniProt P16070 21-220).
T6 construct: Purchased Fc chimera; not shown: Fc portion of the purchased chimera
The test is described as above.

Test [7] has as its target T7, rHuman IGF-1 sR (insulin-like growth factor-1 soluble receptor), CF (R&D Systems Cat#391-GR) (human, UniProt P08069 31-932).
T7 construct: Bought soluble receptor; also called IGF-R1
Kind of test: ECL (MSD multi-spot), antigen on plate, Fab 0.4 nM.

Test [8] concerns the target T8, rHuman P-Cadherin/Fc Chimera, CF (R&D Systems Cat#861-PC) (human, UniProt P22223 108-654).
T8 construct: Bought Fc chimera; also called CDH3; not shown: Fc of the bought chimera
Kind of test: ECL (MSD multi-spot), antigen on plate, Fab 0.4 nM.

In test [9] the target is T9, rHuman Erythropoietin R/Fc Chimera, CF (R&D Systems Cat#963-ER) (human, UniProt P19235 25-250).
T9 construct: Bought Fc chimera; also called EPO R/Fc; Epo R; not shown: Fc of the bought chimera
T9 sequence: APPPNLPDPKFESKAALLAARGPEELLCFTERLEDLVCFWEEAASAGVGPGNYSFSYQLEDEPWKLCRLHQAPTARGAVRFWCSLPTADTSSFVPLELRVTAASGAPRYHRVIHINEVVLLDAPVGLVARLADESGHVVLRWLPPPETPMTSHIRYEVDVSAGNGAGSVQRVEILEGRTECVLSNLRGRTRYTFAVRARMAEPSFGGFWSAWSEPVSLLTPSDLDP
Kind of test: ECL (MSD multi-spot), antigen on plate, Fab 0.4 nM.

Test [10] has as its target T10, Recombinant Human DLL4 (R&D Systems Cat#1506-D4/CF) (human, UniProt Q9NR61 27-524).
T10 construct: Bought recombinant protein; also called delta-like protein 4
Briefly: ECL (MSD multi-spot), antigen on plate, Fab 0.4 nM.

Test [11] deals with T11, rHuman ErbB2/Fc Chimera, CF (R&D Systems Cat#1129-ER) (human, UniProt P04626 23-652).
T11 construct: Bought Fc chimera; also called HER2/neu; not shown: Fc of the bought chimera
Briefly: ECL (MSD multi-spot), antigen on plate, Fab 0.4 nM.

For test [12], the target named is T12, rHuman EGF R/Fc Chimera, CF (R&D Systems Cat#344-ER) (human, UniProt P00533 25-645).
T12 construct: Bought Fc chimera; also called ErbB-1; not shown: Fc of the bought chimera
Briefly: ECL (MSD multi-spot), antigen on plate, Fab 0.4 nM.

Test [13] addresses T13, rHuman HGF R/c-MET/Fc Chimera, CF (R&D Systems Cat#358-MT/CF) (human, UniProt P08581 25-932).
T13 construct: Bought Fc chimera; also called HGF R/Fc; not shown: Fc of the bought chimera
Kind of test: ECL (MSD multi-spot), antigen on plate, Fab 0.4 nM.

Test [14] concerns the target T14, rHuman Notch-1/Fc Chimera, CF (R&D Systems Cat#3647-TK) (human, UniProt P46531 19-526).
T14 construct: Bought Fc chimera; not shown: Fc of the bought chimera
Briefly: ECL (MSD multi-spot), antigen on plate, Fab 0.4 nM.

Test [15] deals with T15, rHuman CD44/Fc Chimera, CF (R&D Systems Cat#3660-CD) (human, UniProt P16070 21-220).
T15 construct: Bought Fc chimera; not shown: Fc of the bought chimera
Briefly: ECL (MSD multi-spot), antigen on plate, Fab 0.4 nM.

Test [16] concerns the target T10, Recombinant Human DLL4 (R&D Systems …). Briefly: ECL (MSD multi-spot), antigen on plate, Fab 0.4 nM. The source holds these as a separate data set.
Test [17] deals with T11, rHuman ErbB2/Fc Chimera, CF (R&D …). Kind of test: ECL (MSD multi-spot), antigen on plate, Fab 0.4 nM. This is another data set of the same source.
Test [18] has as its target T12, rHuman EGF R/Fc Chimera, CF (R&D …). Briefly: ECL (MSD multi-spot), antigen on plate, Fab 0.4 nM. The source holds these as a separate data set.
Test [19] has as its target T14, rHuman Notch-1/Fc Chimera, CF (R&D …). Kind of test: ECL (MSD multi-spot), antigen on plate, Fab 0.4 nM. The source holds these as a separate data set.
For test [20], the target named is T15, rHuman CD44/Fc Chimera, CF (R&D Systems …). Kind of test: ECL (MSD multi-spot), antigen on plate, Fab 0.4 nM. This is another data set of the same source.
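Note: blank spot per well as comparator with Hit at signal to blank ratio of 4 or more.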

B1: Fab VH5-51_IGHD5-18*01>3_IGHJ4*01_G100K & V3-4_IGLJ1*01 (Fab, V domains shown)
VH: EVQLVQSGAEVKKPGESLKISCKGSGYSFTSYWIGWVRQMPGKGLEWMGIIYPGDSDTRYSPSFQGQVTISADKSISTAYLQWSSLKASDTAMYYCARRKYSYGYDYFDYWGQGTLVTVSS
VL: QTVVTQEPSFSVSPGGTVTLTCGLSSGSVSTSYYPSWYQQTPGQAPRTLIYSTNTRSSGVPDRFSGSILGNKAALTITGAQADDESDYYCVLYMGSGISYVFGTGTKVTVL
notes: It was expressed as a Fab: CH1 with tags from Plasmid A and lambda CL from Plasmid E; also called Fab No. 22
Take B1: the ECL signal worked out at 1270 ECL signal in test [1]; 744 ECL signal in [2]; 979 ECL signal in [3]; 35900 ECL signal in test [4]; 1150 ECL signal in test [5]; 857 ECL signal in test [6].

B2: Fab VH1-46_IGHD6-6*01_IGHJ1*01_S102A_S103P_S104F & L6_IGKJ1*01_S28P (Fab, V domains shown)
VH: QVQLVQSGAEVKKPGASVKVSCKASGYTFTSYYMHWVRQAPGQGLEWMGIINPSGGSTSYAQKFQGRVTMTRDTSTSTVYMELSSLRSEDTAVYYCAREEYAPFSAEYFQHWGQGTLVTVSS
VL: EIVLTQSPATLSLSPGERATLSCRASQPVSSYLAWYQQKPGQAPRLLIYDASNRATGIPARFSGSGSGTDFTLTISSLEPEDFAVYYCQQRSNWPPWTFGQGTKVEIKR
notes: Fab
For the molecule B2, the ECL signal in test [7] came to 172 ECL signal; in test [8] it was 191 ECL signal; in [9], 147 ECL signal; in [10] it was 1140 ECL signal; in test [11], 275 ECL signal; in test [12], 246 ECL signal. Besides, the ECL signal is 199 ECL signal in [13], 248 ECL signal in [14] and 257 ECL signal in test [15].

B3: Fab VH1-46_IGHD6-6*01_IGHJ1*01_S102A_S103P_S104F & L6_IGKJ1*01_S30N (Fab, V domains shown)
VH: QVQLVQSGAEVKKPGASVKVSCKASGYTFTSYYMHWVRQAPGQGLEWMGIINPSGGSTSYAQKFQGRVTMTRDTSTSTVYMELSSLRSEDTAVYYCAREEYAPFSAEYFQHWGQGTLVTVSS
VL: EIVLTQSPATLSLSPGERATLSCRASQSVNSYLAWYQQKPGQAPRLLIYDASNRATGIPARFSGSGSGTDFTLTISSLEPEDFAVYYCQQRSNWPPWTFGQGTKVEIKR
notes: Fab
For B3, the ECL signal amounted to 1040 ECL signal in [16]; 203 ECL signal in [17]; 173 ECL signal in test [18]; 197 ECL signal in test [19]; 176 ECL signal in test [20].
